Laboratory results as given in patent US20050158838.
Positions count from the first letter of the chain named.

Key:
GNYTDRRFI test peptide = target: T1, GNYTDRRFI test peptide
T1 chain: GNYTDRRFI

[1] = target: T2, phage isolate 5-H11 display polypeptide ((Asp)4-Lys-containing recognition sequence)
T2 chain: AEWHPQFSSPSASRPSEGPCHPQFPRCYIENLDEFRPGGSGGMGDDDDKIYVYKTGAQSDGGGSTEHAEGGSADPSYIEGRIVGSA

[2] = target: T3, phage isolate 5-A08 display polypeptide
T3 chain: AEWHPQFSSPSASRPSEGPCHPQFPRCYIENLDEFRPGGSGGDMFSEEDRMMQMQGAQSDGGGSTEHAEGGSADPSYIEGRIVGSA

NKAKDRMFI test peptide = target: T4, NKAKDRMFI test peptide
T4 chain: NKAKDRMFI

GNYTDRYFI test peptide = target: T5, GNYTDRYFI test peptide
T5 chain: GNYTDRYFI

[3] = target: T6, AVLSNVMFI (negative control test peptide)
T6 chain: AVLSNVMFI

GNYTDRMFI test peptide = target: T7, GNYTDRMFI test peptide
T7 chain: GNYTDRMFI

[4] = target: T8, phage isolate 5-B05 display polypeptide
T8 chain: T2 chain with M43S, G44L, D48R, K49T, I50V, Y51S, V52P, Y53K, K54F, T55W

[5] = target: T9, phage isolate 5-H04 display polypeptide
T9 chain: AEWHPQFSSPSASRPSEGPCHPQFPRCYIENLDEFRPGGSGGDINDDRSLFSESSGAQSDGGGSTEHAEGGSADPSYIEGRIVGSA

[6] = target: T10, GDDDDKIYV (positive control test peptide)
T10 chain: GDDDDKIYV

DINDDRSLF test peptide = target: T11, DINDDRSLF test peptide
T11 chain: DINDDRSLF

GDDDDK-β naphthylamine = target: T12, GDDDDK-β naphthylamine
T12 chain: GDDDDK

B1: recombinant light chain enterokinase (Novagen, Madison, Wis.) (protein)
chain: IVGGSDSREGAWPWVVALYFDDQQVCGASLVSRDWLVSAAHCVYGRNMEPSKWKAVLGLHMASNLTSPQIETRLIDQIVINPHYNKRRKNNDIAMMHLEMKVNYTDYIQPICLPEENQVFPPGRICSIAGWGALIYQGSTADVLQEADVPLLSNEKCQQQMPEYNITENMVCAGYEAGGVDSCQGDSGGPLMCQENNRWLLAGVTSFGYQCALPNRPGVYARVPRFTEWIQSFLH
- Cleavage Rate (GNYTDRRFI test peptide): 0.18 nmol/min
- cleavage by 20U recombinant light chain enterokinase, 36-48 hrs, HPLC (GNYTDRRFI test peptide): all digestions were carried to completion (except for the negative control which was not cleaved at all)
- rate relative to standard substrate (fold of standard substrate) (GNYTDRRFI test peptide): 0.4
- enterokinase cleavage rate, phage ELISA (release of streptavidin-bound phage at 30 nM or 130 nM enterokinase) [1]: the cleavage rate for the (Asp)4-Lys-containing recognition sequence 5-H11 (SEQ ID NO:194) was slower than for at least three of the other isolates
- enterokinase cleavage rate, phage ELISA (release of streptavidin-bound phage at 30 nM or 130 nM enterokinase) [2]: the cleavage rate for ... 5-H11 (SEQ ID NO:194) was slower than for at least three of the other isolates, i.e., 5-A08 (SEQ ID NO:137), 5-B05 (SEQ ID NO:145) and 5-H04 (SEQ ID NO:188)
- Cleavage Rate (NKAKDRMFI test peptide): 0.26 nmol/min
- cleavage by 20U recombinant light chain enterokinase, 36-48 hrs, HPLC (NKAKDRMFI test peptide): all digestions were carried to completion (except for the negative control which was not cleaved at all)
- rate relative to standard substrate (fold of standard substrate) (NKAKDRMFI test peptide): 0.6
- Cleavage Rate (GNYTDRYFI test peptide): 0.24 nmol/min
- cleavage by 20U recombinant light chain enterokinase, 36-48 hrs, HPLC (GNYTDRYFI test peptide): all digestions were carried to completion (except for the negative control which was not cleaved at all)
- rate relative to standard substrate (fold of standard substrate) (GNYTDRYFI test peptide): 0.5
- cleavage by 20U recombinant light chain enterokinase, 36-48 hrs, HPLC [3]: No cleavage occurred with the negative control peptide (SEQ ID NO:198)
- Cleavage Rate (GNYTDRMFI test peptide): 0.81 nmol/min
- cleavage by 20U recombinant light chain enterokinase, 36-48 hrs, HPLC (GNYTDRMFI test peptide): all digestions were carried to completion (except for the negative control which was not cleaved at all)
- rate relative to standard substrate (fold of standard substrate) (GNYTDRMFI test peptide): 1.8
- ratio (Va/Vb) against reference peptide GDDDDK-βNA, equal to the ratio of kcat/Km (GNYTDRMFI test peptide): 3.5
- enterokinase cleavage rate, phage ELISA (release of streptavidin-bound phage at 30 nM or 130 nM enterokinase) [4]: the cleavage rate for ... 5-H11 (SEQ ID NO:194) was slower than for at least three of the other isolates, i.e., 5-A08 (SEQ ID NO:137), 5-B05 (SEQ ID NO:145) and 5-H04 (SEQ ID NO:188)
- enterokinase cleavage rate, phage ELISA (release of streptavidin-bound phage at 30 nM or 130 nM enterokinase) [5]: isolate 5-H04 (SEQ ID NO:188) shown in Table 5 was the most readily cut
- cleavage by 20U recombinant light chain enterokinase, 36-48 hrs, HPLC [6]: all digestions were carried to completion (except for the negative control which was not cleaved at all)
- rate relative to standard substrate (fold of standard substrate) [6]: 0.7
- ratio (Va/Vb) against reference peptide GDDDDK-βNA, equal to the ratio of kcat/Km [6]: 1
- Cleavage Rate (DINDDRSLF test peptide): 1.43 nmol/min
- cleavage by 20U recombinant light chain enterokinase, 36-48 hrs, HPLC (DINDDRSLF test peptide): all digestions were carried to completion (except for the negative control which was not cleaved at all)
- rate relative to standard substrate (fold of standard substrate) (DINDDRSLF test peptide): 3.1
- ratio (Va/Vb) against reference peptide GDDDDK-βNA, equal to the ratio of kcat/Km (DINDDRSLF test peptide): 30
- rate relative to standard substrate (fold of standard substrate) (GDDDDK-β naphthylamine): 1
